This note sets out measurements from the DeepSol protein solubility set.

This data set can be described thus: soluble on expression in E. coli; label from the status in PepcDB or PDB records.
In the case of “MGSDKIHHHHHHMNQKNILTWGDVAYASRIATGGSKQEWEALELIWQAWEIIIYTGLATYSNKRELLLVVIRFFAIVSFYLEFFNDYYWEYYINNYSREWLKGIHIIPDYNEYIIDCVNGLCCPILPKSEPNNLLLYFVENALQQVMQVPMDSLNSDSMIFKSVWEISHQQFQLDGDIYELQRREAELISESIFLDKIINLAEIHENYNQNNEFIRDEAAIIEIFFDEDNTDLEWMKCTNHIDFQKSQEVIDATNKFIAFFSCYQIKPNFSLKHCSEIIGFNETDLKRWIRTINRKKQIILSGSPGTGKTFIAKHLAEHLIGGSDGFSELLQFHPTYSYEDFIQGIRPQSQDGQLTYPLVPGRFLKFCKEAEYHQGTCVLIIDEINRANLAQVFGELMYLLEYRNREIPLAGGNTFRIPENVRIIGTMNTADRSIANIDHALRRRFAFIELRPNYDVLRRYHQKRGFAVEGLINILQQLNQAIADKNYEIGISFFLTDNLREDMDDIWPMEIEPYLEEYFFNQLAKVDEFRWDKIKDKLWI”, the “soluble on expression in E. coli” value is “not soluble”.
Next, “MAHHHHHHMGNDEIFEDLFISDTEPEELYEELGPIGVGNYGSVIKARNRQTQAIAAIKLVLLVDKDERDFVQKEISILKKCVHPNIVRYYGAHKSLSKLWIVMEYCEGGSVDMVYKVLRHPLPENLIAYVCRQVLLGLQYLHANRKIHRDIKGGNILLTRDGDVKLADFGVSTELSHSLSRRNTFVGTLLWMSPEAILELDYDEKADLWSLGITLIEMAEGAPPYIDTHPARALFMIPKVDPPTLHDKDRWSPQMALFLKRLLIKDYRLRPTATAMLNDPFVAPEKIGTKEQMKAVIDEVLAKKEAMSPQRLHGETNSSATFVERTSTDTDGEDGVTNDTCTSGRAPTGAKVPANTSPVAMEAIDITGAHLFFHDGTLLPLPMLSTHDIGFDELGLGREGIGPFAKPVPDAESLLVPPEQRSTALHGSGGLAYTMHVTQTLKSMLYYHKQLPFFREVTDTEAIKSKELQLKYGSILKSIYRL”: “soluble”.
The result for “SSLDDKPQFPGASAEFIDKLEFIQPNVISGIPIYRVMDRQGQIINPSEDPHLPKEKVLKLYKSMTLLNTMDRILYESQRQGRISFYMTNYGEEGTHVGSAAALDNTDLVFGQYREAGVLMYRDYPLELFMAQCYGNISDLGKGRQMPVHYGCKERHFVTISSPLATQIPQAVGAAYAAKRANANRVVICYFGEGAASEGDAHAGFNFAATLECPIIFFCRNNGYAISTPTSEQYRGDGIAARGPGYGIMSIRVDGNDVFAVYNATKEARRRAVAENQPFLIEAMTYAIGHASTSDDSSAYRSVDEVNYWDKQDHPISRLRHYLLSQGWWDEEQEKAWRKQSRRKVMEAFEQAERKPKPNPNLLFSDVYQEMPAQLRKQQESLARHLQTYGEHYPLDHFDK” reads “soluble”; that for “MASRLLRGVGALAAQALRAHGPRGAAVTRSMASGGGVPTDEEQATGLEREIMIAAQKGLDPYNMLPPKAASGTKEDPNLVPSISNKRIVGCICEEDNCTVIWFWLHKGESQRCPNCGTHYKLVPHQMAH”, “soluble”; that for “MGSDKIHHHHHHMEVERLSLKEFCDMVAERKPTPGGGAVGSVVGAMACALAEMVANFTRKKKGYEDVEPEMERIVEAMEEARLKLFDLAKKDMEAFEKVMKAYKSSEGELQNALKEAASVPMDVIRVMKDLAHELEKLAEFGNKNLASDTLNAADLCHAVFQVEKVNVLINLKEISDETFRKNMLEELEEQEAQIEGCYQRVKKMLEGIVWSSK”, “soluble”.
For the sequence “MTKPLNTTQAVIEWVNNTRRYATRLDDEADALLAQLTLAAADESALNAACASHGCVGLYGYAQSAKAHLLTTLCGNENGKLEIITPDRDYDYFSHINPGHAPANMAIRFTRDIFSNESGWPLRLRLISEAELVQIFIAWTSSSPVCRQVEKSIITSRLEKWQSLRQPQPVPGVTAEEVATIASFWRSCLPSARQHIDDATWQHFASLLPALDLTTRAHAWALLWGEQPEITQQWLALAHMLQQTGHAGELAAPLSLLVDHFGLPAENFLTQMALTANDTQSDVVVHPVKEGRLLNAVSLSLDSLALLTRELVLSVENNVLDNVDLLDIPVAPDSHPHPLWRAKLGWMLAHYRQQVQPDVLVICNALASRSQTSTAAHHLLEWVNATQPQHESALPGVVWAITPQDARFATQQNLDEAVQQLMGKPGVHWGTLQALDKHSMQRLVEWLSQATSAPQRQARLQALREQLRGRVRDLLPMFDDARLPVETVIRRLQAQAARHGDLLAGLLPPVQNFEALLSTRQSREEQVCGLFNDAIDLFADEPTRASASEGHETGYQAHKMWINHLRQWAHCRDNAQRLGLEPQMLNAVAEILITASYRLGLPQQLQKTMQREEVSGAQLHAIIGNFIAWLGYANIEEAQRPASRVQKGAAIFAATPRSTMLRLTKLDEQPVHAASRYVYDWLVALYTLANENAGYRHPQDVTDVDRAQLIALIA”, the “soluble on expression in E. coli” value is “soluble”.
Regarding “GPGSMDDRSLKLAEDFVSARYIDAGRESLRSTARILRSILAQRCCPDEGLTDAAIELILRQLSLMDTNNFARHVGGGEREGRVVSALVRMRHFHLTHGVGRSGDLFSEQPKAAGSSLLYKITNVLMLDLIRQAGAPSTAAAVVVPMA”, the “soluble on expression in E. coli” value is on record as “not soluble”.
The result for “MGSDKIHHHHHHMLEFLSQQKPKILIIGDFMVDNYTWCDCSRISPEAPVLIAKTLKEDKRLGGAANVYANLKSLGADVFALGVVGDDESGKFLQENLKGEFLIQKGRKTPFKNRIMAHNQQVLRLDEEDISEILLENELIALFDEKIKDFKAVVLSDYAKGVLTPKVCKAVIEKAKVLNIPVLVDPKGSDFNKYSGATLLTPNKKEALEALKFENLEGENLEKGIKKLKEDFSLRYSIITLSEAGIALFDEGLKIAPAKALEVYDVTGAGDSVIAVLAFCLANEIEIFKACELANEAAAVVVSKIGSVSVSFDEIKSFKRVDFEKKIKSKEELLVLLKQNNKKIVFTNGCFDIVHFGHIKYLDKAKRLGDVLIVGLNSDASVKRLKGESRPVNSEFQRACMLAAFYFVDFVVIFDEDTPLELISFLKPDILVKGADYKDKLVVGADIVSRVELIDFEEGFSTSKIIEKIKDKK” reads “not soluble”; that for “GTVKVYLPNKQRTVVTVRDGMSVYDSLDKALKVRGLNQDCCVVYRLIKGRKTVTAWDTAIAPLDGEELIVEVL”, “soluble”; that for “MSLDGGNSLFQLRKELYSTDNKLSSIDDDLSDRNTTEDLIMLPSSANSNFSSPYTSNNKYGNTKILTETEKYSVTKLSTDLSFLPGSNGNNNTIDTHHFEGLVDTALQKALVNDLDHIYIWNYNSIQKDTPICKISLHDDYSVLSSPPICLFTSSISSTNNDTANYNNNASGNINSGKFNNGICIINKKNSQFLYFEDISTINNLYTKLSKSKAHVLDLKLKDNENITSTINCEPSGIIIATSLGRVLFITIKDSTGKPKLELKQQLIKPQNSFFFRNLDSSKEIISLKKGPIVGKGERLLYITTRGGSLQIWQLSINSKSFKRLEINIYEHVLDSLQDLYPFAHGTLAFLDSHPIYSDTSSAHLTLASISNGNEIYYLMITVILDEKTNSFQIFSIYKLNTYFTKSTVDLNHKPQLFIPNALDSIVSPTLSVYVLFNNAVVMTQISSKLDSSFPLRRKWEDIIRFNKDVEIIGSGYSTDSIYVICKDMGVLKIASHSNNNQELELVSFVKSHIDQAVYFSTITSNEGHHHHHH”, “soluble”.
Next, “MGSDKIHHHHHHMLFLMDFSMQTHAQTGDITPVVFDQFFQNYYLINPASSDSTGKIQVNIGNRSLIGLFDGVNRLYVDGNVRINHRTAMQYSRLGALVIAYNDGAFINRTRAYLRYSWSTSISERASISAGISAGMVKYTFLASQAGGGGSSTSFDGNAGLWYIRPKLKIGISYQQFTRSELTPVNQTFLLTPYINVNAVYASYLSAHVLLTTHVFYRYESGSVFDIQAAPVFLFNDLFEAGINLRYKRGVAILFGLKSIHVGTGNIRFMGSFMLSTRKLANTLDNAFELSAGYSF”: “not soluble”; “MVMEYLVLEKRLKRLREVLEKRQKDLIVFADNVKNEHNFSAIVRTCDAVGVLYLYYYHAEGKKAKINEGITQGSHKWVFIEKVDNPVQKLLEFKNRGFQIVATWLSKESVNFREVDYTKPTVLVVGNELQGVSPEIVEIADKKIVIPMYGMAQSLNVSVATGIILYEAQRQREEKGMYSRPSLSEEEIQKILKKWAYEDVIKERKRTLSTS”: “soluble”.
Next, “MCKSCYHCGEDVPANTDFKVEILGEVREMCCPGCETVAQTIVDSGLVSYYQYRTAPAEKADLVPEQLQALIHYDNEDVQSEFVRNHDN”: “not soluble”; “MTLAEAADAINFGLAGRVVLVTGGVRGVGAGISSVFAEQGATVITCARRAVDGQPYEFHRCDIRDEDSVKRLVGEIGERHGRLDMLVNNAGGSPYALAAEATHNFHRKIVELNVLAPLLVSQHANVLMQAQPNGGSIVNICSVSGRRPTPGTAAYGAAKAGLENLTTTLAVEWAPKVRVNAVVVGMVETERSELFYGDAESIARVAATVPLGRLARPADIGWAAAFLASDAASYISGATLEVHGGGEPPPYLGASSANK”: “soluble”.
As for “MAHHHHHHMFHGFPDVQIAPRDTVISEEFHLHDKEGRMGTLLQPMAQRMRISFSALTCLGSYAQNATCHYALFGRLCGVQLNETIEVTNVLPPVINPRPPEDETPEQREKRLLAQQREERQMYERMGKMFFKEELDSYHVGYFAICSAYTNAPYSVRTVQQLAQLALDGNPSVLVVYDPFRTSLMGKLYLRAFVPTREYVEFYTRLTDKRNILRENRLMRECNVGKGGVLREVKVEVDVDEYQLLCLSGFNVAPLSSTCRTLHSEVMTDYMAALIESVRHNADELSRGLHSESYFSQKEESYGPLGQRIDTLLKLMQLREQTQHLESLCDGVLLNTSLLRDL”, the “soluble on expression in E. coli” value is listed as “soluble”.
On to “GPGSMDIDSPYKILGIPQSASVADIRAAFRRLALTTHPDKQGSNTSGGEAQMMLYSSHPFYVIKEASDILLDPVRRAEYDEGQQRMYARSIGVVSDVHDISDFRLVEERKALCSEDRVCGDVTIQVYEMECRCGGAFEIFLVKGEEGNMDKLCGCDSCSLIVSVRRQTQQ”, for which the “soluble on expression in E. coli” value is listed as “soluble”.
Take “MRALILGGTGEGRDVAAILHVAGWRVTSSLAGRVSNPKLPVGEVRIGGFGGPAGLTQWLLREGVEVIIDATHPFAERISASAAEASRATGIPLIALHRPEWKPRPRDRWIPVTSMQEAADKAARDYHHIFLTIGRQQLAPFAHDAHNLYVVRAVEPPQVALPQRHRLILSRGPFTLESEKKLMIDNQIDCVVTKNSGGPLTHAKLDAARDLGIDVVMVQRPQLPKVTHVATSAAEVAEIIDSL”: the “soluble on expression in E. coli” value is reported as “not soluble”.
Next, “MAHHHHHHMLNILSYSKLFSSCGRQAVTCPKGCNSYRHVSTGSDECLFTDGRASMGREFTLQPVEMEPVFKVHRPYSSSNCDNPISEDDLPYECGASSDCNTRSSTLRERAVCDEPLAKGLQNTTASTPYRVSWYERGAVSPSKRFVYWAFRRLWDLPPDAREYYRRMLYQEVRAARYVNQTWDCFMMVVDGYRKGKWILKKYGIKIDEGLIPKPYNNFWEETTHEERVWAHRRSHQMKDLQALQREDDNLVFGAHIMDRREVTYGSVKNLQTGMQGGTPVHAHDLPAPFEADVKMSLHEEDISSALMSSIEDDKLWNPVLRSRVHNKLARDEAELYGFEDEDDGDDRS”: “not soluble”.
